# Target: BG505 SOSIP.664 trimer, His-tagged (HIV-1 isolate BG505)
# Experiment: SPR
substance,measurement,value
ACS202 Fab,stoichiometry N (mAb per trimer),3
